These results are taken from publication PMC4065035, “A Highly Functional Synthetic Phage Display Library Containing over 40 Billion Human Antibody Clones” (PLoS ONE, 2014).

The target of assay [1] is T1, murine recombinant BCD domains of tenascin-C (Mus musculus, UniProt Q80YX1).
T1 construct: tenascin-C, mouse, alternatively spliced segment of the three fibronectin type-III homology domains B, C and D; A biotinylated version was used for the panning; the Biacore chip was a coated CM5 chip; also called murine BCD; murine BCD antigen; source: E. coli (pQE12 vector), purified over NiNTA resin
Put plainly: SPR; Biacore 3000; CM5 chip coated with murine or human recombinant BCD domains of tenascin-C; antibody (monomeric fraction of scFv, or SIP) injected at different concentrations, 10 µL/min; regeneration with 10 mM HCl. The following applies: both partners purified. A general note: In SPR one partner is held on a chip, and binding of the other changes the refractive index at the surface.

Assay [2] deals with T2, human recombinant BCD domains of tenascin-C (Homo sapiens, UniProt P24821).
T2 construct: tenascin-C, human, alternatively spliced segment of the three fibronectin type-III homology domains B, C and D; AVI-Tag followed by the His-Tag at the C-terminus; Purification of the human construct is not clearly told; also called human BCD; human BCD domain; source: E. coli (pUC119 vector)
Described as above. The conditions noted are these: both partners purified.

B1: scFv(G5), human antibody G5 in monomeric scFv format (scFv, V domains shown)
VH: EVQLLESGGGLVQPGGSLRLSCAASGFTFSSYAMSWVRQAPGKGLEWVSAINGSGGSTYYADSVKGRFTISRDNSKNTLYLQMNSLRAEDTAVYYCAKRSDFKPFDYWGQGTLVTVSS
VL: SSELTQDPAVSVALGQTVRITCQGDSLRSYYASWYQQKPGQAPVLVIYGKNNRPSGIPDRFSGSSSGNTASLTITGAQAEDEADYYCNSSGFPRTLVVFGGGTKLTVL
notes: VH of G5; library VH is on the DP47 germline with S52N (numbering of Tomlinson et al.) and a randomised CDR3 (residues 95-100); flexible polypeptide linker that connects VH and VL in the library's scFv format; VL of G5; Library scFv are detected by the anti-myc antibody 9E10; also called G5 antibody clone; anti-BCD antibody G5; source: E. coli (pHEN1 phagemid, IPTG induction), purified over …
A word on the Kd: it is a measure of binding affinity in units of concentration. As a reminder, the koff is the rate constant with which the complex falls apart. For orientation: kon means a measure of how fast the partners come together. For B1, in assay [1], the Kd amounted to 31 nM, the koff was 0.0025 s⁻¹ and the kon came to 79000 M⁻¹ s⁻¹. Also, in assay [2], the Kd came out at 27 nM, the koff is 0.003 s⁻¹ and the kon is 110000 M⁻¹ s⁻¹.
